US20230374151A1

Experiments:
[1] = target: STnMUC1 peptide, biotinylated; assay: SPR (Biacore T200): biotinylated STnMUC1 peptide (35-1) captured on CAP chip, scFv as analyte
[2] = target: TnMUC1 peptide 1 (partially glycosylated), biotinylated; assay: SPR (Biacore T200): biotinylated TnMUC1 peptide 1 (96-1) captured on CAP chip, scFv as analyte, 1:1 fit, average
[3] = target: STnMUC1 peptide, biotinylated; assay: SPR (Biacore T200): biotinylated STnMUC1 peptide (35-1) captured on CAP chip, scFv as analyte, 1:1 fit, average
[4] = target: TnMUC1 peptide (fully glycosylated), biotinylated; assay: SPR (Biacore T200): biotinylated TnMUC1 peptide batch 65-1 captured on CAP chip, scFv as analyte, 1:1 fit, average

Chain of STnMUC1 peptide, biotinylated (main, as listed by the source): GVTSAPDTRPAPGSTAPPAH

Q: “murine 5E5 scFv protein (23-P1) obtained from Creative Biolabs” was tested. Which Kd [1] did it give?
A: Its Kd is 0.084 µM.

Q: And the Kd [2]?
A: The Kd was 0.0287 µM.

Q: What about the koff [2] of the same substance?
A: The koff was 0.000803 s⁻¹.

Q: What about the Kd [3] of the same substance?
A: Its Kd is 0.0841 µM.

Q: And the koff [3]?
A: Its koff is 0.000282 s⁻¹.

Q: What about the kon [3] of the same substance?
A: The kon was 3350 M⁻¹ s⁻¹.

Q: What about the Kd [4] of the same substance?
A: Its Kd is 0.0266 µM.

Q: What about the koff [4] of the same substance?
A: The koff was 0.000845 s⁻¹.
